The record followed here is US20040253243.

The target of data set [1] is PDGF-AB (Homo sapiens) (UniProt P04085+P01127). The settings on record: [PEG40K]-NH2-dCdAdGdGdCfUdAfCmG-PEG-dCdGTdAmGdAmGdCdAfUfCmA-PEG-TdGdATfCfCfUmG-3T (f 2'-F, m 2'-OMe, d deoxy; PEG spacers).
Data set [2] deals with PDGF-BB (Homo sapiens) (UniProt P01127). The settings on record: [PEG40K]-NH2-dCdAdGdGdCfUdAfCmG-PEG-dCdGTdAmGdAmGdCdAfUfCmA-PEG-TdGdATfCfCfUmG-3T (f 2'-F, m 2'-OMe, d deoxy; PEG spacers).
Sequence of PDGF-BB (Homo sapiens) (P01127 82-190): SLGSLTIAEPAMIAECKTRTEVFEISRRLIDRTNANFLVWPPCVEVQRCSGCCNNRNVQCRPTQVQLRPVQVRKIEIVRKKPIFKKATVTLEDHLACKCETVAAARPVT

Sequence of PDGF-AB (Homo sapiens) (P01127 82-190, chain 2 of 2, other chains not shown): as the sequence (P01127 82-190) above

Take CAGGCUACGCGTAGAGCAUCATGATCCUG [ARC127]: the dissociation constant Kd in data set [1] and in data set [2] was 0.1 nM throughout.

The Kd is the concentration at which binding is half-saturated.
